{
  "source": "patent US20210221894A1",
  "target": "recombinant human DLL3 (ELISA coat) (human) (UniProt Q9NYJ7)",
  "sequence (Q9NYJ7 27-492 limits assumed)": "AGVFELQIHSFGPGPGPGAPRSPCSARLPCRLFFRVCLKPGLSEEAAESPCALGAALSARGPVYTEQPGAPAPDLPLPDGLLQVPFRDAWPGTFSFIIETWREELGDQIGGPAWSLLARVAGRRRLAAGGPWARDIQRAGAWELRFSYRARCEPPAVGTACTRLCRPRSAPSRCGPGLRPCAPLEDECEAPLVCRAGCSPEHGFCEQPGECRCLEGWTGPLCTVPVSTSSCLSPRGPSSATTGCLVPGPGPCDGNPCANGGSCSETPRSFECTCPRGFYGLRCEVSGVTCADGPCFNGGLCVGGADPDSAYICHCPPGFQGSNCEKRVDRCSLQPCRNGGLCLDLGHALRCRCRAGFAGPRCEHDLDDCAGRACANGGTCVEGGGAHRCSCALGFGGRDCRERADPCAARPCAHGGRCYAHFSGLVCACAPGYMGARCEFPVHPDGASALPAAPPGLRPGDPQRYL",
  "assay": "ELISA, plate coated with recombinant human DLL3 0.5 µg/ml; commercial reagent mAb",
  "data": [
    {"substance": "positive control antibody for DLL3 (R&D Systems, Minneapolis, Minn., Cat #MAB4315)", "values": [
      {"measurement": "EC50", "value": 0.1, "unit": "nM"}
    ]}
  ]
}
